Tests used:
Experiment in all cases: two-hybrid; LexA-Cdc1 bait (pBTM116 or pBTM116BN) with Gal4-Pol3 prey and co-expressed c-myc-tagged Cdc27 (pAA-Cdc27) in S. cerevisiae CTY10-5d; ONPG liquid culture beta-galactosidase assay, mean of triplicates, as percent of wild-type Cdc1
Conditions in all cases: partners not purified
[1] = target: T1, Cdc1-E2 (Schizosaccharomyces pombe, UniProt P87324 1-26)
T1 construct: Cdc1, S. pombe, truncated after amino acid 26 by a 16 nt insertion; residues coded by the 16 nt insertion before the stop codon (printed as GlyValProLysTer); source: yeast two-hybrid fusion, in S. cerevisiae CTY10-5d
T1 chain: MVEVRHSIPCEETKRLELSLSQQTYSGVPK

[2] = target: T2, Cdc1-J6 (Schizosaccharomyces pombe, UniProt P87324 1-462, Tyr-GlyValProHisTyr-Gly)
T2 construct: Cdc1, S. pombe, with a pentapeptide inserted after residue 124; source: yeast two-hybrid fusion, in S. cerevisiae CTY10-5d
T2 sequence (looked up): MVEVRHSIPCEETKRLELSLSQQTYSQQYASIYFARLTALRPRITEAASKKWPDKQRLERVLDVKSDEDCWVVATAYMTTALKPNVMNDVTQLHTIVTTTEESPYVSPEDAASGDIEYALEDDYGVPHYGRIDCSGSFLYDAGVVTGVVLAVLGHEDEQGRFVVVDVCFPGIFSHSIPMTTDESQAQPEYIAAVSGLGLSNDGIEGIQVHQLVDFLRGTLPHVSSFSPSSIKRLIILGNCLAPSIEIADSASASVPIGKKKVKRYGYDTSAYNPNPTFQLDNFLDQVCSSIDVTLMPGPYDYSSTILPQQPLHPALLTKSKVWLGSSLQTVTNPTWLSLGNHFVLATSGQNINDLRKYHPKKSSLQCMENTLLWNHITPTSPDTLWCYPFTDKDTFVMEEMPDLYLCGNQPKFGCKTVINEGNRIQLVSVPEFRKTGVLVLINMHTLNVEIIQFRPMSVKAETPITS

[3] = target: T3, Cdc1-J1 (Schizosaccharomyces pombe, UniProt P87324 1-462, Thr-GlyValProLeuThr-Gly)
T3 construct: Cdc1, S. pombe, with a pentapeptide inserted after residue 141; source: yeast two-hybrid fusion, in S. cerevisiae CTY10-5d
T3 sequence (looked up): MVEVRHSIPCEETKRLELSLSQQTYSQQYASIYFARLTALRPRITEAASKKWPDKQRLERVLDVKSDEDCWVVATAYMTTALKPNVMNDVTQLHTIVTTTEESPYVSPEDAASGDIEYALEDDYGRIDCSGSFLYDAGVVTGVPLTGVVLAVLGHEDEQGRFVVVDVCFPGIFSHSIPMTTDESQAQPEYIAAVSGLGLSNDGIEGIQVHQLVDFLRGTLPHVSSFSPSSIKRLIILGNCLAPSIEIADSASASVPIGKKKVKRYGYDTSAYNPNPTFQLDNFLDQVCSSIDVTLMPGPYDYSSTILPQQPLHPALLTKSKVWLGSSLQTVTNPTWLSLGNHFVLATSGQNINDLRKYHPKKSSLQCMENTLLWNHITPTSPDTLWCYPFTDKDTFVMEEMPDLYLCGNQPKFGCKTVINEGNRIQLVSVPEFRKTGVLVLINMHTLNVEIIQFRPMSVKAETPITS

[4] = target: T4, Cdc1 (fission yeast DNA polymerase delta B-subunit), wild type (Schizosaccharomyces pombe, UniProt P87324 1-462)
T4 construct: DNA polymerase delta B-subunit Cdc1, S. pombe; cdc1+ cDNA on a 1.5 kb BamHI fragment from pBTM116-Cdc1, ORF 1386 bp; also called WT; LexA-Cdc1; source: yeast two-hybrid fusion, in S. cerevisiae CTY10-5d
T4 sequence (looked up): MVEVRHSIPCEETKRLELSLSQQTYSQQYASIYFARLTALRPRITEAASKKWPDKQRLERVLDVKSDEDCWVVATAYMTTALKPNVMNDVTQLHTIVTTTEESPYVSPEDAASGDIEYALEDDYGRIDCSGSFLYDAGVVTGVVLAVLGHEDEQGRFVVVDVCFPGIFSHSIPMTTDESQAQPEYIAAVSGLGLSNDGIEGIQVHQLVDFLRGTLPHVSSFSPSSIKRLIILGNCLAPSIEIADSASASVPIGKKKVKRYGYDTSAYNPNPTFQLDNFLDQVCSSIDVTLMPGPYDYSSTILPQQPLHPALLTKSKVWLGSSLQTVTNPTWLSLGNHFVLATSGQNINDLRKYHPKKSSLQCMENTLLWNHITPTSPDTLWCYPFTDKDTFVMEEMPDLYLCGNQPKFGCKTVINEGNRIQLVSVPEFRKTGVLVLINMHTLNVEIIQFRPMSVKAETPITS

B1: Pol3 (fission yeast DNA polymerase delta catalytic subunit) (natural protein, Schizosaccharomyces pombe, UniProt P30316 1-1086, looked up)
chain: MTDRSSNEGVVLNKENYPFPRRNGSIHGEITDVKRRRLSERNGYGDKKGSSSKEKTSSFEDELAEYASQLDQDEIKSSKDQQWQRPALPAINPEKDDIYFQQIDSEEFTEGSVPSIRLFGVTDNGNSILVHVVGFLPYFYVKAPVGFRPEMLERFTQDLDATCNGGVIDHCIIEMKENLYGFQGNEKSPFIKIFTTNPRILSRARNVFERGEFNFEELFPVGVGVTTFESNTQYLLRFMIDCDVVGMNWIHLPASKYQFRYQNRVSNCQIEAWINYKDLISLPAEGQWSKMAPLRIMSFDIECAGRKGVFPDPSIDPVIQIASIVTQYGDSTPFVRNVFCVDTCSQIVGTQVYEFQNQAEMLSSWSKFVRDVDPDVLIGYNICNFDIPYLLDRAKSLRIHNFPLLGRIHNFFSVAKETTFSSKAYGTRESKTTSIPGRLQLDMLQVMQRDFKLRSYSLNAVCSQFLGEQKEDVHYSIITDLQNGTADSRRRLAIYCLKDAYLPQRLMDKLMCFVNYTEMARVTGVPFNFLLARGQQIKVISQLFRKALQHDLVVPNIRVNGTDEQYEGATVIEPIKGYYDTPIATLDFSSLYPSIMQAHNLCYTTLLDSNTAELLKLKQDVDYSVTPNGDYFVKPHVRKGLLPIILADLLNARKKAKADLKKETDPFKKAVLDGRQLALKVSANSVYGFTGATNGRLPCLAISSSVTSYGRQMIEKTKDVVEKRYRIENGYSHDAVVIYGDTDSVMVKFGVKTLPEAMKLGEEAANYVSDQFPNPIKLEFEKVYFPYLLISKKRYAGLFWTRTDTYDKMDSKGIETVRRDNCPLVSYVIDTALRKMLIDQDVEGAQLFTKKVISDLLQNKIDMSQLVITKALSKTDYAAKMAHVELAERMRKRDAGSAPAIGDRVAYVIIKGAQGDQFYMRSEDPIYVLENNIPIDAKYYLENQLSKPLLRIFEPILGEKASSLLHGDHTRTISMAAPSVGGIMKFAVKVETCLGCKAPIKKGKTALCENCLNRSAELYQRQVAQVNDLEVRFARLWTQCQRCQGSMHQDVICTSRDCPIFYMRIAEHKKLQQSVDLLKRFDEMSW
notes: DNA polymerase delta catalytic subunit Pol3, S. pombe; prey plasmid named pACT-Pol3 in the results and pGAD2F-Pol3 in the methods; also called Gal4-Pol3; pACT-Pol3; source: yeast two-hybrid fusion, in S. cerevisiae CTY10-5d
[1]
  two-hybrid beta-galactosidase activity, % of wild-type Cdc1: < 1%
[2]
  two-hybrid beta-galactosidase activity, % of wild-type Cdc1: < 1%
[3]
  two-hybrid beta-galactosidase activity, % of wild-type Cdc1: < 1%
[4]
  two-hybrid beta-galactosidase activity, % of wild-type Cdc1: 100%

From PMC2734569, “Functional mapping of the fission yeast DNA polymerase δ B-subunit Cdc1 by site-directed and random pentapeptide insertion mutagenesis” (BMC Molecular Biology, 2009)
